Measurements taken from the DeepSol protein solubility set.

experiment: soluble on expression in E. coli; label from the status in PepcDB or PDB records

| Sequence | soluble on expression in E. coli |
| --- | --- |
| MGSDKIHHHHHHMRKVAIYSRVSTINQAEEGYSIQGQIEALTKYCEAMEWKIYKNYSDAGFSGGKLERPAITELIEDGKNNKFDTILVYKLDRLSRNVKDTLYLVKDVFTANNIHFVSLKENIDTSSAMGNLFLTLLSAIAEFEREQIKERMQFGVMNRAKSGKTTAWKTPPYGYRYNKDEKTLSVNELEAANVRQMFDMIISGCSIMSITNYARDNFVGNTWTHVKVKRILENETYKGLVKYREQTFSGDHQAIIDEKTYNKAQIALAHRTDTKTNTRPFQGKYMLSHIAKCGYCGAPLKVCTGRAKNDGTRRQTYVCVNKTESLARRSVNNYNNQKICNTGRYEKKHIEKYVIDVLYKLQHDKEYLKKIKKDDNIIDITPLKKEIEIIDKKINRLNDLYINDLIDLPKLKKDIEELNHLKDDYNKAIKLNYLDKKNEDSLGMLMDNLDIRKSSYDVQSRIVKQLIDRVEVTMDNIDIIFKF | not soluble |
| MGSDKIHHHHHHMRLFTSKSRYLIGVDIGTTSVKLVDIQRQQGVFHLRSYGTEILSEGIVIDKLIVDTEAVGNTIAGLARRCQAVGSSAATAVSGSAVITKIIDMDMVLNDVEREAQIRLDADQYIPYPLDDVNLDFEVLGPSLINDDMVQVLLAASRSENVDQRVDALTFGGLQTKVMDIESHAIERAFGLMVDSLPNLPELVALVDIGHNQTTLYVAKNGEFIYSREQLFGGSQLTEAIQNRYGLSAEEASISQREHALPEDYYPDVLTPFIENTIQQITRSLQFYFSSSQYSSIDHVVLAGGSSAIAGLAGMAQQRLGVPVSIANPFINMTIAPHIDHEQLAIDAPSLMAACGLALRSFD | not soluble |
| MGSDKIHHHHHHMRLITFDASYDPIAEESKTVRVYVFEPEKIERNLIFLHGIGNGNIPYLLWFGEKFREYNIKTWFLILPYHEKRAPENWSGGEPFYHSSPSFCVKRFDEAVQDVIDLVDVVKRDNDKPISLMGFSFGGMITTIALAREKRIEKGVICCSGGDWRWINWYSPYTERLRELYRKNGNEYGCRSEKDCIKNRRNAPEIIKSFNSIEDIRKKPPVGCYFYDPASFAPFVDQKVLFFWALFDHVIPYQSYACLHKLLKNKKTVYLPSGHKGSYFFRRYIAKRVVRFLIDDE | not soluble |
| MGSDKIHHHHHHMRLPQKMFKIDTYLSPGEAFHFVRKELSEASPVLEHDHDYYELFLIQQGQVYHWINGLEEMLEPGHMVFVRPSDRHALQGAPGTGAKILNVMFRTQTAAHLVTRYADVFGGRFFWQPGPLPVTLRLHGPQRERAINSMLTLDTSFRNLARIELFLLSVMTHVLDTGEIVDGRAPGWLLQACHAAREPRVFRQGADGFLHAAGRSQAHVCRQARRYLGLSPTQYVNRIRIQHAAMLLAGTERGLPDIAADCGFENLSYFHRLFREQYGTTPRGYRHRHVRPIAPL | not soluble |
| MGSDKIHHHHHHMRMLRRGSRGNDVAEVQVRLSELGYIPGPIDGIFGPKTEAAVIRFQKDRGLNPDGIVGPLTYQALFQPGPQPGYVLYTIKAGDTFYKLSLAFGVSLNEIIAANPGVDPYQLRIGQQVRIPKGGPGRRHTFSAWIPYWVQQEAMAVVRQHAELMTTLSPFWYELTPTGDLLLYPNAEDSSLIEFARSRGIELIPLVANNYDRQLISTVLNNPDLRQRNIAQIVNKVRSMNYTGIEIDYENIAAADRELFVLFLRELKAALAPYNKKLYVAIQAKTRADEPVSIGHDYGGIGAAVDVVRLMLYDYSWDNPGPIAPASWIRQVLDYAVTVIPPAKLEAGLPTYGYDWGTTRRSITYDDAIRLAQQHGAQIIQDPQRGPHFNYTDADGIAHQVWFTNALNFATFVDIVNQYNLRGISIWHPGGDDPQIYTVIQDRLE | not soluble |
| MGSDKIHHHHHHMRNIVFTGKGGVGKTSIAASTAVRAAALGYKTLVISTDPAHSLGDSFDIELGPSPVKVAENLWGQEVSVYGDLSLNWEVVREHFAHLMEVQGIEGIYVEEMGVLPGMEELFSLSYIKRYNESSEYDLLVVDCAPTGETLRLLSIPETFGWMLKLMRNMEKYVVKPVIRPLSKRISRLHDFVPDTDVYDQVDHLFSSVEGIIELLSDNSKTTVRLVMNPEKMVVKESMRALTYLNLYNITIDQIVINRVYMDDVDGQYFKGWKEIQKKYIAEIESSFGPIPITRVPLFRTEVLGLEMLKKVGETVYGDRNPLDIFYHEEHTEIVKPGEGHYVMKLRLPFVFDNRMEANIVQVGDLLTIRIGNHQKSVVLPTFLAGMKVTHAGYEEKWLAIEFRKKETAK | not soluble |
